In patent US20250212928A1:

Target: bovine trypsin (bovine) (UniProt P00760)
Assay: cell-based or functional assay

Chain of UniProt P00760 (P00760 24-246): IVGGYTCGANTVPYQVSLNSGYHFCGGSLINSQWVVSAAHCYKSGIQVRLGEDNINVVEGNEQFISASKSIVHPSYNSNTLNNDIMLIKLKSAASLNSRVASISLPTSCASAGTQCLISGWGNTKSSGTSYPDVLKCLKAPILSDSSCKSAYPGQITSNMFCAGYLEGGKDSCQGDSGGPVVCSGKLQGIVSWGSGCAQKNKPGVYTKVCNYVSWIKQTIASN

Question: “native chicken ovomucoid (nOVD), from chicken egg white (from UniProt P01005 25-210)” was tested. Which Trypsin inhibition activity did it give?
Answer: 13700 TIU/g
